Data published in patent publication US5760204.

Assays:
[1] = target: human interleukin 5 receptor 2 HSIL5R2 (human); assay: Scatchard analysis, 35S-labeled mouse IL-5 on COS7 cells transfected with pCAGGS.HSIL5R2
[2] = target: murine interleukin 5 receptor encoded by pIL-5R.8 (membrane bound, low affinity IL-5R) (mouse); assay: Scatchard analysis, 35S-labeled IL-5 on COS7 cells transfected with pIL-5R.8 (CDM8 vector)
[3] = target: high affinity IL-5R on Y16 cells (mouse) (UniProt P21183); assay: Scatchard analysis, 35S-labeled IL-5 on Y16 cells, high affinity sites
[4] = target: low affinity IL-5R on Y16 cells (mouse) (UniProt P21183); assay: Scatchard analysis, 35S-labeled IL-5 on Y16 cells, low affinity sites
[5] = target: human interleukin 5 receptor HSIL5R (human); assay: Scatchard analysis, 35S-labeled mouse IL-5 on COS7 cells transfected with pCAGGS.HSIL5R
[6] = target: murine interleukin 5 receptor encoded by pIL-5R.8 (membrane bound, low affinity IL-5R) (mouse); assay: Scatchard analysis, 35S-labeled IL-5 on COS7 cells transfected with pCAGGS.5R.8
[7] = target: human interleukin 5 receptor HSIL5R (human); assay: Scatchard analysis, 125I-labeled human IL-5 on COS7 cells transfected with pCAGGS.HSIL5R
[8] = target: human interleukin 5 receptor 2 HSIL5R2 (human); assay: Scatchard analysis, 125I-labeled human IL-5 on COS7 cells transfected with pCAGGS.HSIL5R2

| Kd [1] [nM] | Kd [2] [nM] | Kd [3] [nM] | Kd [4] [nM] | Kd [5] [nM] | Kd [6] [nM] | Kd [7] [nM] | Kd [8] [nM] | Substance |
| --- | --- | --- | --- | --- | --- | --- | --- | --- |
| 0.355 | 2 | 0.02 | 5.1 | 0.25 | 9.6 |  |  | murine interleukin 5 (from UniProt P04401) (ligand) |
|  |  |  |  |  |  | 0.59 | 0.41 | human interleukin 5 (from UniProt P05113) (ligand) |
